Measurements reported in patent publication US20190062438A1 (CSL, published 2019).
Positions count from the first letter of the chain named.

B1: 9A2-VR24.124 (antibody, V domains shown)
VH: EVQLLESGGGLVQPGGSLRLSCAASGFTFPWYRVHWVRQAPGKGLEWVSSIRSSGGFTYYTPSVRGRFTISRDNSKNTLYLQMNSLRAEDTAVYYCARFYDSFFDIWGQGTMVTVSS
VL: DIQMTQSPSSVSASVGDRVTITCRASQGISSWLAWYQQKPGKAPKLLIYAASSLQSGVPSRFSGSGSGTDFTLTISSLQPEDFATYYCQQANSFPITFGQGTRLEIKR
B2: 9A2-VR39.12 (antibody, V domains shown)
VH: EVQLLESGGGLVQPGGSLRLSCAASGFTFFWFNTVWVRQAPGKGLEWVSSINGRGRVTYYADSVKGRFTISRDNSKNTLYLQMNSLRAEDTAVYYCARFYDSFFDIWGQGTMVTVSS
VL: B1 VL
B3: 9A2-VR24.102 (antibody, V domains shown)
VH: B1 VH with T58P, Y59F, T61N, P62S, R65K
VL: B1 VL
B4: 9A2-VR39.19 (antibody, V domains shown)
VH: B2 VH with F30Q, W31Y, T34V, V35I
VL: B1 VL
B5: 9A2-VR24.122 (antibody, V domains shown)
VH: B1 VH with T61N, P62S, S63E, R65K
VL: B1 VL
B6: 9A2-VR39.05 (antibody, V domains shown)
VH: B2 VH with F30P, N33H
VL: B1 VL
B7: 9A2-VR39.01 (antibody, V domains shown)
VH: B2 VH with N33H, T34H
VL: B1 VL
B8: 9A2-VR24.111 (antibody, V domains shown)
VH: B1 VH with T58P, Y59M, T61N, S63H, R65K
VL: B1 VL
B9: 9A2-VR24.55 (antibody, V domains shown)
VH: B1 VH with T61N, R65K, G66N
VL: B1 VL
B10: 9A2-VR24.110 (antibody, V domains shown)
VH: B1 VH with T58P, T61N, P62N, S63H, R65K
VL: B1 VL
B11: 9A2-VR39.16 (antibody, V domains shown)
VH: B2 VH with F30Q, T34I
VL: B1 VL
B12: 9A2-VR39.02 (antibody, V domains shown)
VH: B2 VH with F30Y, F32Y, N33H, T34M, V35I
VL: B1 VL
B13: 9A2-VR39.18 (antibody, V domains shown)
VH: B2 VH with F30P, W31G, F32Y, N33V, T34W, V35I
VL: B1 VL
B14: 9A2-VR24.131 (antibody, V domains shown)
VH: B1 VH with T61N, R65M
VL: B1 VL
B15: 9A2-VR39.04 (antibody, V domains shown)
VH: B2 VH with F30N, N33Q, T34H, V35I
VL: B1 VL
B16: 9A2-VR39.11 (antibody, V domains shown)
VH: B2 VH with F30Q, W31E, N33H, V35I
VL: B1 VL
B17: 9A2-VR39.06 (antibody, V domains shown)
VH: B2 VH with F30Q, F32Y, N33H, T34Y, V35I
VL: B1 VL
B18: 9A2-VR24.57 (antibody, V domains shown)
VH: B1 VH with T61N, S63K, R65K, G66H
VL: B1 VL
B19: 9A2-VR24.56 (antibody, V domains shown)
VH: B1 VH with T61N, S63A
VL: B1 VL
B20: 9A2-VR24.107 (antibody, V domains shown)
VH: B1 VH with T58P, T61N, S63F, R65K
VL: B1 VL
B21: 9A2-VR39.17 (antibody, V domains shown)
VH: B2 VH with F30P, W31F, F32Y, N33H, T34K
VL: B1 VL
B22: 9A2-VR24.98 (antibody, V domains shown)
VH: B1 VH with T58P, Y59H, T61N, P62S, S63V, R65K
VL: B1 VL
B23: 9A2-VR39.21 (antibody, V domains shown)
VH: B2 VH with F30Q, W31H, F32Y, N33H
VL: B1 VL
B24: 9A2-VR5 (antibody, V domains shown)
VH: B1 VH with P30S, W31H, R33H, V34M, H35L, T61A, P62D, R65K
VL: B1 VL with S30R, S31P, W32F, L33V
B25: 9A2-VR21 (antibody, V domains shown)
VH: B1 VH with P30M, W31H, T61A, P62D, R65K
VL: B1 VL
B26: 9A2-VR26 (antibody, V domains shown)
VH: B1 VH with P30I, W31H, T61A, P62D, R65K
VL: B1 VL
B27: 9A2-VR8 (antibody, V domains shown)
VH: B1 VH with P30S, W31H, R33H, V34M, H35L, T61A, P62D, R65K
VL: B1 VL with I29V, S30R, S31P, W32F, L33I, A34S
B28: 9A2-VR12 (antibody, V domains shown)
VH: B1 VH with P30S, W31H, R33H, V34M, H35L, T61A, P62D, R65K
VL: B1 VL with S30R, S31P, W32F, L33V, A34S
B29: 9A2-VR11 (antibody, V domains shown)
VH: B1 VH with P30S, W31H, R33H, V34M, H35L, T61A, P62D, R65K
VL: B1 VL with I29V, S30R, S31P, W32F, L33V, A34S
B30: 9A2-VR23 (antibody, V domains shown)
VH: B1 VH with P30E, T61A, P62D, R65K
VL: B1 VL
B31: 9A2-VR9 (antibody, V domains shown)
VH: B1 VH with P30S, W31H, R33H, V34M, H35L, T61A, P62D, R65K
VL: B1 VL with S30R, S31P, W32F, L33I, A34D
B32: 9A2-VR16 (antibody, V domains shown)
VH: B1 VH with P30S, W31H, R33H, V34M, H35L, T61A, P62D, R65K
VL: B1 VL with Q89G, Q90I, A91P, N92V, S93L, F94G
B33: 9A2-VR22 (antibody, V domains shown)
VH: B1 VH with P30Q, T61A, P62D, R65K
VL: B1 VL
B34: 9A2-VR6 (antibody, V domains shown)
VH: B1 VH with P30S, W31H, R33H, V34M, H35L, T61A, P62D, R65K
VL: B1 VL with I29V, S30R, S31P, W32F, L33V, A34N
B35: 9A2-VR14 (antibody, V domains shown)
VH: B1 VH with P30S, W31H, R33H, V34M, H35L, T61A, P62D, R65K
VL: B1 VL with Q89G, Q90K, A91P, N92V, S93F, F94D
B36: 9A2-VR13 (antibody, V domains shown)
VH: B1 VH with P30S, W31H, R33H, V34M, H35L, T61A, P62D, R65K
VL: B1 VL with Q89G, Q90K, A91P, N92V, S93L, F94D
B37: 9A2-VR20 (antibody, V domains shown)
VH: B1 VH with P30N, W31H, T61A, P62D, R65K
VL: B1 VL
B38: 9A2-VR19 (antibody, V domains shown)
VH: B1 VH with P30S, W31H, R33H, V34M, H35L, T61A, P62D, R65K
VL: B1 VL with Q89G, Q90I, A91P, N92I, S93L, F94G

target: T1, human CD131 (human, UniProt P32927 17-897); experiment: cell-based or functional assay
T1 sequence: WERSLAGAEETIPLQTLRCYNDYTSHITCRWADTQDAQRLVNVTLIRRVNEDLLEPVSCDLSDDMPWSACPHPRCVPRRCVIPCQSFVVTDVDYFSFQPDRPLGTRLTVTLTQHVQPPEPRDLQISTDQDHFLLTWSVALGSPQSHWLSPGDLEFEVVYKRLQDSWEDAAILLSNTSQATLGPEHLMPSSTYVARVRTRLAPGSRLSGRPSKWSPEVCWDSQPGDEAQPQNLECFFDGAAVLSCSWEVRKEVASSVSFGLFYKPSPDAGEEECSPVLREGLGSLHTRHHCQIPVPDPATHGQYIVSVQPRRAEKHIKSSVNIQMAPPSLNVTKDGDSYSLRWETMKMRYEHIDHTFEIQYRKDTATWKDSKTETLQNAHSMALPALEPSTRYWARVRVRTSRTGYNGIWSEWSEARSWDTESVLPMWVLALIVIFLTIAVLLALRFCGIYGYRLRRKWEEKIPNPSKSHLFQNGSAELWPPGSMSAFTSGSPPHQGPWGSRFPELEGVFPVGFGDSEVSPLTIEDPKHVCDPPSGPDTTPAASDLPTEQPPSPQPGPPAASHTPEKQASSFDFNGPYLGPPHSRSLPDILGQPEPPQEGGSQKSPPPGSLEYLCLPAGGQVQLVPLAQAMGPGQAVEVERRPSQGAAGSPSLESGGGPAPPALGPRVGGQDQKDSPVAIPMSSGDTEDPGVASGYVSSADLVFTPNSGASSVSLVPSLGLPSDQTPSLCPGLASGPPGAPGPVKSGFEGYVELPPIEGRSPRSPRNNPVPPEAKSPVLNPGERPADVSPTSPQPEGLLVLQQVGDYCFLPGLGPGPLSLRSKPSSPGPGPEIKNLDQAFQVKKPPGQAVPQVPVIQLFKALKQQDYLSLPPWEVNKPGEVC

Binder	IC50 GM-CSF, TF-1 proliferation [nM]
B1	0.54
B2	25.1
B3	0.32
B4	7.26
B5	0.66
B6	0.96
B7	0.51
B8	0.42
B9	0.6
B10	0.24
B11	6.07
B12	0.46
B13	> 1000
B14	1.06
B15	30.4
B16	18.6
B17	1.85
B18	0.33
B19	0.48
B20	0.3
B21	0.67
B22	0.25
B23	0.96

target: T1, human CD131; experiment: cell-based or functional assay; remark: another data set of the same source

Binder	IC50 GM-CSF, TF-1 proliferation [nM]	pStat5 IC50 GM-CSF, TF-1 bla reporter [nM]
B24	87	
B25	99.8	
B26	4.6	23.6
B27	57.7	
B28	198	
B29	353	
B30	60	24
B31	72.7	
B32	> 1000	
B33	39.9	
B34	250	
B35	> 1000	
B36	> 1000	
B37	79.3	
B38	> 1000	
